Assay results published in US20060024297A1 (published 2006).
Substitutions are numbered along the chain they refer to. “And” between values parts separate entries of the source, which are not always exact repeats. Equal values may be shown once.

B1: E3 IgG (parental anti-Tie1 antibody E3, human IgG1) (antibody, V domains shown)
VH: EVQLLESGGGLVQPGGSLRLSCAASGFTFSMYGMVWVRQAPGKGLEWVSVISPSGGNTGYADSVKGRFTISRDNSKNTLYLQVNSLRAEDTAVYYCARAPRGYSYGYYYWGQGTLVTVSS
VL: DIQMTQSPLSLSASVGDRVTITCRASQGIGHYLAWYQQKPGKVPKLLIYTASTLQSGVPSRFSGSGSGTDFTLTINSLQPEDVATYYCQQFNSYPHTFGQGTRLDIK
notes: also called E3 IgG1; parental E3
B2: germlined E3 IgG (light chain framework regions germlined to DPK4; heavy chain as parental) (antibody, V domains shown)
VH: B1 VH
VL: B1 VL with L9S, N76S, D105E
notes: also called germlined E3 IgG1; germlined anti Tie1 E3-IgG
B3: P-B3 IgG (anti-Tie1 isolate p-B3, human IgG1) (antibody, V domains shown)
VH: EVQLLESGGGLVQPGGSLRLSCAASGFTFSRYGMHWVRQAPGKGLEWVSVISPSGGMTYYADSVKGRFTISRDNTKNTLYLQMNSLRAEDTAVYYCARVGATGPFDIWGQGTMVTVSS
VL: DIQMTQSPATLSLSPGERATLSCRASQSVSTYLAWYQQKPGQAPRLLIYDASNRATGIPGRFSGSGSGTDFTLTISSLEAEDFAVYYCQQRSSWPITFGQG
notes: the VL entry stops within FR4
B4: P-G3 IgG (anti-Tie1 isolate p-G3, human IgG1) (antibody, V domains shown)
VH: EVQLLESGGGLVQPGGSLRLSCAASGFTFSHYMMVWVRQAPGKGLEWVSSIYPSGGWTYYADSVKGRFTISRDNSKNTLYLQMNSLRAEDTAVYYCARLDYGGNSAYFDYWGQGTLVTVSS
VL: QSVLTQPHSVSASPGKTVTISCTRSSGNIASNFVQWYQQRPGSVPTTVIYEDDRRPSGVPDRFSGSIDSSSNSAFLSISGLKTEDEADYYCQSHDRTTRAWVFGGGTKL
notes: lambda VL entry stops within FR4

Experiments:
[1] = molecular target: T1, recombinant mouse Tie1-Fc (mouse, UniProt Q06806 23-755, limits assumed); experiment: BIAcore, mouse Tie-1 Fc over IgG coupled to CM5 chip, 1:1 fit
T1 construct: also called Tie-1 Fc Mouse; not shown: Fc
T1 sequence (looked up): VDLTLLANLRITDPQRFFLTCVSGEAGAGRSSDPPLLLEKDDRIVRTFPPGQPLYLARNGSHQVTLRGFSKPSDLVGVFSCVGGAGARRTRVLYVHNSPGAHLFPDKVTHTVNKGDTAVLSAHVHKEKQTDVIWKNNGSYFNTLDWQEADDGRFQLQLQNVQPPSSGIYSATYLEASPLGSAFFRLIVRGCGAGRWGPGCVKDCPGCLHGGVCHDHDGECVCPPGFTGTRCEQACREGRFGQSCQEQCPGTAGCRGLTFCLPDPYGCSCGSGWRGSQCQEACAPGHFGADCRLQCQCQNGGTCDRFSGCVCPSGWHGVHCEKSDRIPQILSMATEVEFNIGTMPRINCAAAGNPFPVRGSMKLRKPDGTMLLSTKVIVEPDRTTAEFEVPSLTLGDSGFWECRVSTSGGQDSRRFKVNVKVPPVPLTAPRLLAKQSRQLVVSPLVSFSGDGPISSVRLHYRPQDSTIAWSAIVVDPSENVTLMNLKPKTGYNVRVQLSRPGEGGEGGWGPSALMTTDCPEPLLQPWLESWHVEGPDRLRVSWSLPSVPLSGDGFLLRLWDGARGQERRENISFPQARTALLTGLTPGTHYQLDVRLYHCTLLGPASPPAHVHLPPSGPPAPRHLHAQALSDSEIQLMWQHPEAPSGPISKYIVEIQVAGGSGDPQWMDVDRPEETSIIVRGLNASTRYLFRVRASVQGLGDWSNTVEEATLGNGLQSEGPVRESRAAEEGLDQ
Experimental: This was then used to transiently transfect HEK293T cells using established procedures. The IgG was purified from the culture supernatant using protein A column chromatography using established procedures and the subsequent IgG was then tested for binding activity using surface plasmon resonance (BIAcore). […] The IgG were directly coated via onto a CM5 chip. […] All flow cells were subsequently deactivated with a 7 minute pulse of 1M ethanolamine hydrochloride pH8.5. All analysis was performed in HBS buffer. Purified recombinant mouse Tie-1 Fc was diluted 1/6.5 in HBS to obtain a 400 nM stock solution. Serial dilutions were made to obtain 200 nM, 100 nM, 50 nM and 25 nM Tie-1 Fc stocks. For analysis of the association phase samples were injected at 30 μl/min for 8.3 minutes using kinject program. This was followed by a 40 minutes dissociation phase. Any antigen remaining associated to the surface was stripped from the IgG surface at a flow of 50μl/min with two injections of 10 mM glycine pH1.5 for 30 seconds. All samples were run and analyzed in duplicate
(§1) Sensorgrams were analyzed using the simultaneous ka/kd fitting program with 1:1 model in the BIAEVALUATION™ software 3.1.

[2] = molecular target: T2, recombinant human Tie1-Fc (Tie1 extracellular domain fused to human Fc) (human, UniProt P35590 25-759); experiment: BIAcore, human Tie-1 Fc over IgG coupled to CM5 chip, 1:1 fit
T2 construct: also called Tie-1 Fc Human; not shown: human Fc
T2 sequence: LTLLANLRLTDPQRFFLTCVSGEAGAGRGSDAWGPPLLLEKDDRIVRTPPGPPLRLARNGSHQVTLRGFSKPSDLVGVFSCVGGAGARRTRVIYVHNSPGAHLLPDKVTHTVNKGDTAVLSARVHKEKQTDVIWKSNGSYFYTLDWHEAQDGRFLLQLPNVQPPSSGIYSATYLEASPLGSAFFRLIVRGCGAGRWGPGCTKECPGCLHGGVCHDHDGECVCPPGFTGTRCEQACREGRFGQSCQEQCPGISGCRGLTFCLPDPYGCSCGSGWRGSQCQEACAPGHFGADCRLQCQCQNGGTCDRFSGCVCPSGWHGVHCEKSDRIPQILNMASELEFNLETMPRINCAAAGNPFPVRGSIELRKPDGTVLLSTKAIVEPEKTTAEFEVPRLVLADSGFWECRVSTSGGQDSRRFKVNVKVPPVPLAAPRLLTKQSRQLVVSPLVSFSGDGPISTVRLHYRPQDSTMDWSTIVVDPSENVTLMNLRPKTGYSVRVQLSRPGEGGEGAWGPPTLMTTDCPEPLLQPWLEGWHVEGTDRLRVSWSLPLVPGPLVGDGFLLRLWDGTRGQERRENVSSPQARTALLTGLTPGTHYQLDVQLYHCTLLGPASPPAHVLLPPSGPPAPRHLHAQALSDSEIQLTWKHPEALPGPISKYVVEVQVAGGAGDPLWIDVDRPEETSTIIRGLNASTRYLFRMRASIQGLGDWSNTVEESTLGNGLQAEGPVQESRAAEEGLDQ
Experimental: The IgG were directly coated onto a CM5 chip. […] All flow cells were subsequently deactivated with a 7 minute pulse of 1M ethanolamine hydrochloride pH 8.5. All analysis was performed in HBS buffer. Purified recombinant human Tie-1 Fc was diluted 1/28.7 in HBS to obtain a 400 nM stock solution. Serial dilutions were made to obtain 200 nM, 100 nM, 50 nM and 25 nM Tie-1 Fc stocks. For analysis of the association phase samples were injected at 30 μl/min for 8.3 minutes using kinject program. This was followed by a 40 minutes dissociation phase. Any antigen remaining associated to the surface was stripped from the IgG surface at a flow of 50μl/min with two injections of 10 mM glycine pH 1.5 for 30 secods. All samples were run and analyzed in duplicate
as §1

[3] = molecular target: T3, endogenous human Tie1 of primary human endothelial cells (HDMEC/HDMVEC, HUVEC) and human tissues (human, UniProt P35590 25-1138); experiment: cell-based or functional assay
[4] = molecular target: T4, human Tie1, full length, V5-tagged (pcDNA3-Tie1-V5), in transiently transfected COS1 cells (human, UniProt P35590 25-1138); experiment: Western blot, Tie1-V5-transfected COS1
T4 construct: it is not expressly tied to the pcDNA3-Tie1-V5 construct; also called Tie1-transfected; transfected Tie1
Experimental: (§2) COS1 cells were transfected with pcDNA3-Tie1-V5 (1 μg DNA per 10 cm cell culture plate) using FUGENE 6 (Roche) according to manufacturer's instruction and incubated for 48 h before stimulation. For immunoprecipitation, Tie1 transfected cells and HMVEC cells were lysed in DOC-RIPA lysis buffer (50 mM Tris-HCl pH 8.0, 150 mM NaCl, 1% Triton-X-100, 0.1% SDS, 1% DOC, 10 mM EDTA) supplemented with aprotinin, leupeptin, PMSF and sodium vanadate. Immunoprecipitation was carried out from equal amount of cell lysates by incubating with polyclonal anti-human Tie1 antibodies (R&D), monoclonal anti-V5 antibodies (Invitrogen) or altogether 23 anti-Tie1 antibodies (1μg/ml) for 1 to 2 h followed by incubation with protein G-Sepharose (Amersham Pharmacia Biotech AB) for 1 h. The immunoprecipitates were washed twice with PBS-T and twice with PBS, followed by elution with the Laemmli buffer and separation in 8% SDS-PAGE. The blots were probed with the 23 anti-Tie1 antibodies (5 μg/ml) and subsequently anti-human Fc antibodies conjugated with HRP.
(§3) Next, to find out if the anti-Tie1 antibodies recognize Tie1 in living cells, those cells were studied by immunofluorescence staining.

[5] = molecular target: T3, endogenous human Tie1 of primary human …; experiment: immunofluorescence, HDMEC
[6] = molecular target: T3, endogenous human Tie1 of primary human …; experiment: Western blot, HDMEC
Experimental: as §2, §3

Binder	Kd [1] [nM]	koff [1] [s⁻¹]	kon [1] [M⁻¹ s⁻¹]	Kd [2] [nM]	koff [2] [s⁻¹]	kon [2] [M⁻¹ s⁻¹]	IC50 of tube formation by HUVECs [3]	binding result [4]	binding result [5]	binding result [6]
B1	14.9	9.2e-05	6170	5.83	3.61e-05	6190	10 ng/ml and 66 pM	–	–	–
B2	15	8.99e-05	6000	5.17	3.67e-05	7090	10 ng/ml and 66 pM	–	–	–
B3	–	–	–	–	–	–	–	binds	binds	–
B4	–	–	–	–	–	–	–	binds	–	binds
